# In patent US20260042850A1:
# How the values were obtained:
# [1] = target: cynomolgus monkey C-MET on stably transfected CHO-K1 cells (cynomolgus monkey); assay: flow cytometry, C-MET CHO-K1 cells
# [2] = target: human C-MET on stably transfected CHO-K1 cells (human) (UniProt P08581); assay: flow cytometry, C-MET CHO-K1 cells
# [3] = target: cynomolgus monkey C-MET His tag, monomeric (cynomolgus monkey); assay: SPR Biacore, IgG captured, monomeric C-MET-His analyte
# [4] = target: human C-MET His tagged, monomeric (human) (UniProt P08581); assay: as above
# human C-MET His tagged, monomeric (human), sequence (P08581 25-932): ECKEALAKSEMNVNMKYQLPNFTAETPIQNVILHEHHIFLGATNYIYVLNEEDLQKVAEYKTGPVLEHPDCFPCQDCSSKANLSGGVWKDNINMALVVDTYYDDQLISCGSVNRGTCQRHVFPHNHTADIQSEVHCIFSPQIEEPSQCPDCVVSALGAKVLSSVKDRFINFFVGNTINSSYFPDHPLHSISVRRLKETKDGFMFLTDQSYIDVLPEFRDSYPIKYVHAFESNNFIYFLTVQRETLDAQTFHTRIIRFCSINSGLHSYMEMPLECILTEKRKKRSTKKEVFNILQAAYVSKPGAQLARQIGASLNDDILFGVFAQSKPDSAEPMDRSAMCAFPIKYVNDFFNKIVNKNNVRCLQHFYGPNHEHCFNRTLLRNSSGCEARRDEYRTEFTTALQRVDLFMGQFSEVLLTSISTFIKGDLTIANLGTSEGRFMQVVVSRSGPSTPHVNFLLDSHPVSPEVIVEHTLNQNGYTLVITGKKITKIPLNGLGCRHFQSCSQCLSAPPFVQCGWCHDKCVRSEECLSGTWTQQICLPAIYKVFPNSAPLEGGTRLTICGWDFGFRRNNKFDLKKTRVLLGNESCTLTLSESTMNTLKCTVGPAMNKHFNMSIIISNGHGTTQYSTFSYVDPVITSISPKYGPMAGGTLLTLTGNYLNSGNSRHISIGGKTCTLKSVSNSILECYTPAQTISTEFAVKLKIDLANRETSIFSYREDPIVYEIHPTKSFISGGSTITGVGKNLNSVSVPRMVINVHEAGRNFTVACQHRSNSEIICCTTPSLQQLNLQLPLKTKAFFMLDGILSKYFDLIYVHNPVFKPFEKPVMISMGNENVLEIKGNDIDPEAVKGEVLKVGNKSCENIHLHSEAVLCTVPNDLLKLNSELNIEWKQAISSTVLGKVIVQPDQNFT
# [5] = target: cynomolgus monkey C-MET His tag, monomeric (cynomolgus monkey); assay: SPR Biacore, monomeric cyno against monomeric human C-MET
# human C-MET on stably transfected CHO-K1 cells (human), sequence (P08581 25-1390 limits assumed): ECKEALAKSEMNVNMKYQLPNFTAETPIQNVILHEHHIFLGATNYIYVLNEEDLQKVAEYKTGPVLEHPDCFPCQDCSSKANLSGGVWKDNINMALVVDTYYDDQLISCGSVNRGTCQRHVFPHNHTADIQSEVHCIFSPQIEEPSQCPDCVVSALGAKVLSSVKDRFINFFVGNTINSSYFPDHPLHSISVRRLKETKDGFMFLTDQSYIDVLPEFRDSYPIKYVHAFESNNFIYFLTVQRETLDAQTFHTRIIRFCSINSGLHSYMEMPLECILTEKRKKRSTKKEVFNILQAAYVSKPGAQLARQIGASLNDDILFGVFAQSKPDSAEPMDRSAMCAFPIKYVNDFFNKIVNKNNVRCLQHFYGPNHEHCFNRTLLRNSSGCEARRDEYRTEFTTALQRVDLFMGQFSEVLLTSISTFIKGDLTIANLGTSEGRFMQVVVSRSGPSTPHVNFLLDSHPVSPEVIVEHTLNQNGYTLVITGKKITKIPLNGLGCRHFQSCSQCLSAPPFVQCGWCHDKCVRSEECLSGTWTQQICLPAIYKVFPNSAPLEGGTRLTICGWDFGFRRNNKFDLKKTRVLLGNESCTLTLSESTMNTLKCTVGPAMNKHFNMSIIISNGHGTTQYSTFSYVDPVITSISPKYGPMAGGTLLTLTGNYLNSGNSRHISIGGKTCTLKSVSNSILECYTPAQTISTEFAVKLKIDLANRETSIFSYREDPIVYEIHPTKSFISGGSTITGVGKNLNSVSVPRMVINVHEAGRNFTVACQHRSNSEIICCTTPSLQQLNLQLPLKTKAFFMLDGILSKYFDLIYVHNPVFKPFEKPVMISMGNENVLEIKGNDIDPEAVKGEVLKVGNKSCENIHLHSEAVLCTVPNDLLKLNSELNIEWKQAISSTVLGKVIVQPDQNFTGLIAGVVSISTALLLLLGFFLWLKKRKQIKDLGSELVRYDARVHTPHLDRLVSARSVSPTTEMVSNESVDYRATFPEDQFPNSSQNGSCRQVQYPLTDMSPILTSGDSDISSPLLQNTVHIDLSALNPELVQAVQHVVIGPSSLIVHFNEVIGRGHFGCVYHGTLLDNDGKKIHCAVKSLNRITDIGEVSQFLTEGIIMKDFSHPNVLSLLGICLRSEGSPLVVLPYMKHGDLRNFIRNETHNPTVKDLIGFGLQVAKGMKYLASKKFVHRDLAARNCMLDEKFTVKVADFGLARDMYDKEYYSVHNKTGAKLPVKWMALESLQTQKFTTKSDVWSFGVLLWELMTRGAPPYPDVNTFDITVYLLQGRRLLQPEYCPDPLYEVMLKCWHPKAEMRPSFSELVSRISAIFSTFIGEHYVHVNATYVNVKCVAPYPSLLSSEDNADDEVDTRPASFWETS
# cynomolgus monkey C-MET on stably transfected CHO-K1 cells (cynomolgus monkey), sequence (A0M8R7 25-1381 S170N/I621T limits assumed): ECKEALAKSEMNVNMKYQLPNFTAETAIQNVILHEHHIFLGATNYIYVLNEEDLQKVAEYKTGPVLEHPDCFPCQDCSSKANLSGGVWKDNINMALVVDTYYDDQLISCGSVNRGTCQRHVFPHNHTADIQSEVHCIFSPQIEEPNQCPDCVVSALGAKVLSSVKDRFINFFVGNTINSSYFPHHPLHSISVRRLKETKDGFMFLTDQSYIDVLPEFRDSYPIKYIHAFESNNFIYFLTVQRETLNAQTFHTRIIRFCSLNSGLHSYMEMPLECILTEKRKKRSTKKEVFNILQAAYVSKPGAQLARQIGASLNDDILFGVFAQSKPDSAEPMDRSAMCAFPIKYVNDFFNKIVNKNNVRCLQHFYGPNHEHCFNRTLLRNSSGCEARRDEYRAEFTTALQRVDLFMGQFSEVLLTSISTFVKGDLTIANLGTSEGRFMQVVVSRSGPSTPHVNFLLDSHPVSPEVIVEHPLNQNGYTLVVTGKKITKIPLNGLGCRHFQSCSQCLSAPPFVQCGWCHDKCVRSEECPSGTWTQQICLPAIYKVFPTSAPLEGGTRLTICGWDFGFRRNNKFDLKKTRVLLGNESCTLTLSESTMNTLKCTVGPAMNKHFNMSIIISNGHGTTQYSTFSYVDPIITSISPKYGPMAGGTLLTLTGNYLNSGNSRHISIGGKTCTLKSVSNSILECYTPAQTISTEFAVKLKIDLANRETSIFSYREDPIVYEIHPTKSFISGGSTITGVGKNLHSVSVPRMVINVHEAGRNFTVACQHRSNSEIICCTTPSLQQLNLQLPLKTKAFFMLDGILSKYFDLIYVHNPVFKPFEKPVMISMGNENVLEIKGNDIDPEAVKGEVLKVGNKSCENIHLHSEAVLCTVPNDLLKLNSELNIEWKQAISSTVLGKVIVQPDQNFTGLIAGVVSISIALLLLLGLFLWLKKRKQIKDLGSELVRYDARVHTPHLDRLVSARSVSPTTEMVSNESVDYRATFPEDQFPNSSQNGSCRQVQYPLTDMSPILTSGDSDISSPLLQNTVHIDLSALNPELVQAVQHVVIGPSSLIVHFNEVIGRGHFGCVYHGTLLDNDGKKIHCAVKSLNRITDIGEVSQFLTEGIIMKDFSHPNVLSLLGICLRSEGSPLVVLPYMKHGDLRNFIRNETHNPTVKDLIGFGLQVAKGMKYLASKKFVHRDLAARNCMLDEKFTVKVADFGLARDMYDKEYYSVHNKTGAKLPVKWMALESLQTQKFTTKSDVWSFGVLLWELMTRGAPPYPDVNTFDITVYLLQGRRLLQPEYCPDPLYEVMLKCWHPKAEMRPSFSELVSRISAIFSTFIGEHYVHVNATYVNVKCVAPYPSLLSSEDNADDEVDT
# cynomolgus monkey C-MET His tag, monomeric (cynomolgus monkey), sequence (A0M8R7 25-932 S170N/I621T): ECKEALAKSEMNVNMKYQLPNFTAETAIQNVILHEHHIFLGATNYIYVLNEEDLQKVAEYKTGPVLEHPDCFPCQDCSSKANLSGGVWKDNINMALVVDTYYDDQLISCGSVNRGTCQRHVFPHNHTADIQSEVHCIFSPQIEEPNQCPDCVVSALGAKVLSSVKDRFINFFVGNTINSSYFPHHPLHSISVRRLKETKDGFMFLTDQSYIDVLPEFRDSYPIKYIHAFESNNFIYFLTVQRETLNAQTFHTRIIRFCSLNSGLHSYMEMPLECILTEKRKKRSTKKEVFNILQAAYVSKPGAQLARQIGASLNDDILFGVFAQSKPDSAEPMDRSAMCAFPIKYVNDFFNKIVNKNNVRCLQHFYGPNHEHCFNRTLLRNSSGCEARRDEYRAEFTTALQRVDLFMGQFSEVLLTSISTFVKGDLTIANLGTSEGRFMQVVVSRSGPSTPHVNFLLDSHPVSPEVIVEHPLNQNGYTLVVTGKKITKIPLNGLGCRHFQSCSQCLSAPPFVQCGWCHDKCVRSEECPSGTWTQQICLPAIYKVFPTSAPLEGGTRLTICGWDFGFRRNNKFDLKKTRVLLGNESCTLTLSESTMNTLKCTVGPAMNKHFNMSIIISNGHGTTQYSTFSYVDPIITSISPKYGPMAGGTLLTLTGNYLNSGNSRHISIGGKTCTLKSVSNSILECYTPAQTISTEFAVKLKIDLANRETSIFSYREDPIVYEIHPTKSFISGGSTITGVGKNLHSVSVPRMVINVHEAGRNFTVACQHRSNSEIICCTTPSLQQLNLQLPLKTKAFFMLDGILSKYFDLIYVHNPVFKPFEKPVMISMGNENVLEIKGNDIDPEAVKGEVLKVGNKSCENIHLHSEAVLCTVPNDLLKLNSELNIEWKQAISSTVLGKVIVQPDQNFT
EC50 [1] [nM],"maximum MFI, fold over Isotype IgG4 background [1] [fold]",EC50 [2] [nM],"maximum MFI, fold over Isotype IgG4 background [2] [fold]",Kd [3] [nM],koff [3] [s⁻¹],kon [3] [M⁻¹ s⁻¹],Kd [4] [nM],koff [4] [s⁻¹],kon [4] [M⁻¹ s⁻¹],"cyno C-MET affinity, fold of the human C-MET affinity [5] [fold]",Binder
0.28,> 10,2.33,> 10,1.5,0.00023,160000,2,0.00015,74000,–,"09A12 (antibody, IgG4, V domains shown) VH: QVQLVQSGAEVKKPGASVKVSCKASGYTFTSYSMHWVRQAPGQGLEWMGWINPNGGLTNYAQKFRGRVTMTRDTSTSTVYMELSSLRSEDTAVYYCAREEITTEFDYWGQGTLVTVSS VL: EIVLTQSPGTLSLSPGERATLSCRASQSVSSYAQSYLHWYQQKPGQAPRLLIYRASTRETGIPDRFSGSGSGTDFTLTISRLEPEDFAVYYCQQSKESPLTFGGGTKVEIK"
1.74,> 10,7.44,> 10,0.17,1.6e-05,94000,0.24,1.3e-05,56000,< 2,"07A01 (antibody, IgG4, V domains shown) VH: QVQLVQSGAEVKKPGASVKVSCKASGYIFTSYTMHWVRQAPGQGLEWMGWINPNGGLASYAQKFQGRVTMTRDTSTSTVYMELSSLRSEDTAVYYCARSEITTEQDYWGQGTLVTVSS VL: EIVLTQSPGTLSLSPGERATLSCRASQSVDSYANSYLHWYQQKPGQAPRLLIYRGSTRESGIPDRFSGSGSGTDFTLTISRLEPEDFAVYYCQQSKESPLTFGGGTKVEIK"
